Laboratory results reported in patent US7244706.

Tests used:
[1] = target: human lactoferrin (LF), intact, purified from human milk/colostrum (UniProt P02788)
human lactoferrin (LF), intact, purified from human milk/colostrum, sequence (P02788 20-710): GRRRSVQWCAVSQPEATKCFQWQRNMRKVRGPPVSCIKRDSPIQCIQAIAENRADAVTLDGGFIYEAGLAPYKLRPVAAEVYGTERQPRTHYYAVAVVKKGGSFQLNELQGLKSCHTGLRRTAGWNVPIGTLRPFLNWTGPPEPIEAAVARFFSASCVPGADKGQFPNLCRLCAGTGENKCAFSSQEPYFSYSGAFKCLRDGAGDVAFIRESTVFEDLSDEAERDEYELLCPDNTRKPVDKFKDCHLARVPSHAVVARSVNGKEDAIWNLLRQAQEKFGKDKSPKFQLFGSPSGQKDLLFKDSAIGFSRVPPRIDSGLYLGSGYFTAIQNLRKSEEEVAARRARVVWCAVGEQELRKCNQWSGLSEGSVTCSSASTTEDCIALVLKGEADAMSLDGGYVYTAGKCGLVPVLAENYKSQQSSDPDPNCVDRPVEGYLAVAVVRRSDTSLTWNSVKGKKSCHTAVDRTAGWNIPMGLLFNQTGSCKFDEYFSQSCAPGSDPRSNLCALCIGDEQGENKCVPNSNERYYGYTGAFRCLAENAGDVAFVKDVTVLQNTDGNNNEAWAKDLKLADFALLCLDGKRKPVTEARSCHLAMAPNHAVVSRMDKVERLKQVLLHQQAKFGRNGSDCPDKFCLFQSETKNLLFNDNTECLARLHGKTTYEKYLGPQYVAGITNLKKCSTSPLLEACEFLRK

bovine spleen cathepsin D (Sigma), sequence (chain, as listed by the source): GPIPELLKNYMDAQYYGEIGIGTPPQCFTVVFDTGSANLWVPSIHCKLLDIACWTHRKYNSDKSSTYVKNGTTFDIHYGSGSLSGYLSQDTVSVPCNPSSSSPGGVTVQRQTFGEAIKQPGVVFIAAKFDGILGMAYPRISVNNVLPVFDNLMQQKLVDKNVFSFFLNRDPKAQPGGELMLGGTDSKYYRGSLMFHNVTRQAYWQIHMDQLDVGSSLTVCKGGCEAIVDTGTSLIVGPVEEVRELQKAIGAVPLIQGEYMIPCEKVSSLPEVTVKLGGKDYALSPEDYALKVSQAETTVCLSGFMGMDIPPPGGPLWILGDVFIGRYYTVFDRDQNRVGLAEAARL

## bovine spleen cathepsin D (Sigma)
[1]
  proteolytic release of the N-terminal 6 kDa polypeptide, seen by immunoblot: Exposure of either iron-saturated or iron-free LF to even small amounts of cathepsin D ( 1/200th, w:w) for a period as brief as five minutes yielded the N-terminal 6 kDa polypeptide
Pepstatin A
  loss of proteolytic release of the 6 kDa fragment from LF, seen by immunoblot: incubations of LF performed in the absence of cathepsin D or in the presence of pepstatin A, an inhibitor of cathepsin D, failed to identify a 6 kDa fragment
